Measured values as given in US20210395345A1.

Legend:
Experiment in all cases: cell-based or functional assay
[1] = target: SARS-CoV-2 spike protein with V445A (SARS-CoV-2) (UniProt P0DTC2)
[2] = target: SARS-CoV-2 spike protein with N439K (SARS-CoV-2) (UniProt P0DTC2)
[3] = target: SARS-CoV-2 spike protein with K444N (SARS-CoV-2) (UniProt P0DTC2)
[4] = target: SARS-CoV-2 spike protein with K444Q (SARS-CoV-2) (UniProt P0DTC2)
[5] = target: SARS-CoV-2 spike protein with K444T (SARS-CoV-2) (UniProt P0DTC2)

mAb10987 (antibody) showed a reduced susceptibility (fold; neutralization) [1] of 548 fold, a reduced susceptibility (fold; neutralization assays using pseudotyped VSV) [2] of 463 fold and a reduced susceptibility (fold; neutralization) [3] of over 755 fold. For the same substance, the reduced susceptibility (fold; neutralization) [4] was over 548 fold and the reduced susceptibility (fold; neutralization) [5] was over 1030 fold.
